Where no end group is shown, it is not given here. The star is where a group is joined. DTPA = O=C(O)CN(CCN(CC(=O)O)CC(=O)O)CCN(CC(=O)O)CC(=O)*

Common to all, as to assay: europium-labelled ligand saturation binding on cells (time-resolved fluorescence); HEK293T cells transiently transfected with receptor, 96-well plates; increasing Eu-H2 relaxin (maximum 15 nM) with or without 1 μM unlabelled H2 relaxin, 1 h, room temperature; 20 mM HEPES pH 7.5, […] CaCl2, 50 mM NaCl, 0.01% NaN3, 1% BSA; one-site fit
In assay [1] the target is RXFP1 F54A, full length (human).
Assay [2] concerns the target RXFP1 S47A/L48A, full length (human).
The target in assay [3] is RXFP1 M60A, full length (human).
Assay [4] has as its target RXFP1 G41A, full length (human).
Assay [5] concerns the target RXFP1 F54A/Y58A, full length (human).
Assay [6] addresses RXFP1 Y58A, full length (human).
Assay [7] has as its target RXFP1 T61A, full length (human).
The target in assay [8] is T1, RXFP1 D51A, full length (human).
T1 sequence (Q9HBX9 1-757 with D51A, looked up): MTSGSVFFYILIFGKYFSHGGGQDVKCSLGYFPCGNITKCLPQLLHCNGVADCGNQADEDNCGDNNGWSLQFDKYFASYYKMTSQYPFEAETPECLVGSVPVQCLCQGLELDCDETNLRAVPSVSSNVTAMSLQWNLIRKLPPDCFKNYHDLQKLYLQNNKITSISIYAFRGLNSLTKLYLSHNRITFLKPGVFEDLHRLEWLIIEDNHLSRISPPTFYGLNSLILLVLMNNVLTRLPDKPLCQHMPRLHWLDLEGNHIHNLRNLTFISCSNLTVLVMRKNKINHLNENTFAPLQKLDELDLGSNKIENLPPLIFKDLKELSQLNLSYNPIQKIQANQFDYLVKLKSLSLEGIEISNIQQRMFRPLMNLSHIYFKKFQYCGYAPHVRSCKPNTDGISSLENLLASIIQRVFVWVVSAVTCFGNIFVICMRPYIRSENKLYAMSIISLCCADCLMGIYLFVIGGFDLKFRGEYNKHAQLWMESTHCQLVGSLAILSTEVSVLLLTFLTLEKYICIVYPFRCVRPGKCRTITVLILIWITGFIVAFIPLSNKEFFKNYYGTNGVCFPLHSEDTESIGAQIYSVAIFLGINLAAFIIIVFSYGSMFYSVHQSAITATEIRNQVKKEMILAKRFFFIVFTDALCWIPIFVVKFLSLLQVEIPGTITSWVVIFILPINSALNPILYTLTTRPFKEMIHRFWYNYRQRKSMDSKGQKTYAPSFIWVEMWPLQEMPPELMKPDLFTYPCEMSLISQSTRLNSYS

The target of assay [9] is RXFP1 N44A, full length (human).
Assay [10] addresses RXFP1 G45A, full length (human).
For assay [11], the target named is RXFP1 D42A, full length (human).
The target in assay [12] is RXFP1 N43A/N44A, full length (human).

B1: Europium-labelled H2 relaxin (ligand, human)
chain 1: {DTPA}-QLYSALANKCCHVGCTKRSLARFC
chain 2: DSWMEEVIKLCGRELVRAQIAICGMSTWS
modifications: not fully specified; ends and bridges not checked; also: DTPA cage loaded with Eu^3+
notes: A chain of human gene-2 (H2) relaxin; numbers count on: the A chain; B chain of human gene-2 (H2) relaxin; numbers count on: the B chain; also called Eu-H2 relaxin; Eu-H2
For the molecule B1, the Kd (in general, the free concentration of one partner at which half of the binding sites on the other are occupied at equilibrium, for simple one-to-one binding) was 2.43 nM in assay [1]; 0.43 nM in assay [2]; 1.08 nM in assay [3]; 0.95 nM in assay [4]; 6.51 nM in assay [5]; 1.56 nM in [6]. The Kd in [7] is 0.69 nM; in assay [8] it was 0.73 nM; in assay [9] it was 0.81 nM; in [10], 19.1 nM; in assay [11], 20.7 nM; in assay [12], 3.28 nM.

For the origin of these results see paper PMC4837482, “The complex binding mode of the peptide hormone H2 relaxin to its receptor RXFP1” (Nature Communications, 2016).
